Assay results from IntAct's records for PubMed 22382979.

B1: Proliferating cell nuclear antigen (Saccharomyces cerevisiae), P15873 (parent)
chain: MLEAKFEEASLFKRIIDGFKDCVQLVNFQCKEDGIIAQAVDDSRVLLVSLEIGVEAFQEYRCDHPVTLGMDLTSLSKILRCGNNTDTLTLIADNTPDSIILLFEDTKKDRIAEYSLKLMDIDADFLKIEELQYDSTLSLPSSEFSKIVRDLSQLSDSINIMITKETIKFVADGDIGSGSVIIKPFVDMEHPETSIKLEMDQPVDLTFGAKYLLDIIKGSSLSDRVGIRLSSEAPALFQFDLKSGFLQFFLAPKFNDEE
partner: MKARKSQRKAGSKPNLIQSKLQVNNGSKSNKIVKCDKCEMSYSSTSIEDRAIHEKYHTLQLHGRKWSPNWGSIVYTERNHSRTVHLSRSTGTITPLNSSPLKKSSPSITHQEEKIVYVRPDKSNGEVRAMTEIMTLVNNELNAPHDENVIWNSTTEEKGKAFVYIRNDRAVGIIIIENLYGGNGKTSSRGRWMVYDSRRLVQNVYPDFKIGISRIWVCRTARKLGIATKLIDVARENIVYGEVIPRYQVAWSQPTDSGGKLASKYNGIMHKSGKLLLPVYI
B2: Proliferating cell nuclear antigen (Saccharomyces cerevisiae), P15873 (parent)
chain: B1 chain
B3: ATP-dependent DNA helicase SRS2 (Saccharomyces cerevisiae), P12954 (parent)
chain: MSSNNDLWLHLVSQLNTQQRAAALFDYTRGLQVIAGPGTGKTKVLTSRVAYLILHHHIHPRDIIVTTFTNKAANEMKERLQEMLRGAGVNISELLIGTFHSICLKILYRFGHLVDLQKDWRIIDEKEIDVILDDMIEKVPDQIRDYASSITRKVNLCMPSKNGDEWTIHPKLIKKQISKLKSNAILPEEYILDSNHDAALGYFYQIYQSELSKKNTLDFDDLLMYTFRLLTRVRVLSNIKHVLVDEFQDTNGIQLDLMFLFAKGNHHLSRGMTIVGDPDQSIYAFRNALAHNFLEMGRKCPIEYSTIILVENYRSSQKILNTSEILITQQNKGRQNRAPLRAQFDLDFPPVYMNFPAYFLEAPSLVRELLYLKALPNLFTFNDFAILVRQRRQIKRIESALIEHRIPYKIIRGHSFWDSKETRAMLNLLKLIFSPNDKHAILASLLYPARGLGPATGEKIKNALDTLATDVSCFQILKDISSKKIMLDIPTKGRSVIADFISMIENCQLLLQSTLLGGLSDLFDKLYELSGLKYEYLYKDGKKKNDQLEKSEPNLLNARHKNIELLKNYFLALLSKSESSDKEKNEAIKAATDEAEPIENKVITPKEYLRNFFNSLSLHSDAAEEEESESNKDAKIKREKNGFVTISTIHGAKGLEWPVVFIPGCEEGIIPCVFNDDKKDESEEDEEEDQENSKKDASPKKTRVLSVEDSIDEERRMFFVAQTRAKYLLYLSNTVTVEDVDRPRIASRFLTTDLIKAMSDSQKLFESTNSIKKLYRILNKKPPAEDDKLFSLDQLRKDYNQFIENRRERMIWQGIQMNDVYGIQLSRNKLLGSVSDFTSAADQLRLETQNSIFPQKKLIEKSRPSKINGNYAPKSRVKSPEKRYAPETTSFHSPTKKKVYAPQYVSTTNVPSRQEFHSSTGKNIPFLRREDRSITDISPRSSTRSLKGASPNKTSHMSDDLMRPSPTRKDKVTRNIHFATAGTFRIETQSNVDELHPPEYSNKSGQSLTSSEFSGFSSACSNSDQPTNLIEDINNELDLSDEELLNDISIERRRELLGSKKTKKIKPKTRNRKSKRGDKVKVEEVIDLKSEFEEDDSRNTTAAELLHNPDDTTVDNRPIISNAKFLADAAMKKTQKFSKKVKNEPASSQMDIFSQLSRAKKKSKLNNGEIIVID

Variants of: B1
Details: with eco1_yeast ECO1, P43605

Effect of a mutation on the interaction, decreasing interaction:
F125A;L126A;K127A;I128A

Variants of: B2
Details: with srs2_yeast SRS2, P12954

Effect of a mutation on the interaction, decreasing interaction:
F125A;L126A;K127A;I128A

Variants of: B3
Details: with pcna_yeast POL30, P15873

Effect of a mutation on the interaction, decreasing interaction:
D1151A
I1152A;L1156A
Q1149E;I1152A
Q1149E
L1156A
I1152A
F1153A
Q1155E

Variants of: B3
Details: with smt3_yeast SMT3, Q12306
Sequence of smt3_yeast SMT3, Q12306 (Q12306 whole entry): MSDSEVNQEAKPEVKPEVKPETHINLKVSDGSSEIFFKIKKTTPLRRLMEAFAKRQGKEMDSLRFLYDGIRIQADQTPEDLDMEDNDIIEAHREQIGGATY

Effect of a mutation on the interaction, decreasing interaction:
I1152A;L1156A
Q1149E;I1152A
L1156A
I1152A
